For this test, the target named is T1, GST-hEphA5 (1-72 aa) (human, UniProt P54756 304-375).
T1 construct: also called first 72 amino acids of the region 304-467 of the hEphA5 protein fused to GST; not shown: Glutathione S-transferase (GST) fusion partner
T1 sequence: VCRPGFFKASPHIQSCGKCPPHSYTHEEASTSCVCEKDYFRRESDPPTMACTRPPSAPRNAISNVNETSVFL
The experiment in a line: ELISA with decreasing amount of 11C12 on GST fusion proteins. On the procedure: FIG. 10: Further 11C12 epitope mapping on human EphA5. ELISA assays were performed with decreasing amount of 11C12 antibody in the presence of various portions of human EphA5 fused to GST. GST fusion proteins included EphA5 sequence from the regions corresponding to amino acids 304-467 (SEQ ID NO:3) and are numbered relative to this region. GST fusion proteins included GST-hEphA5 (1-24 aa) (SEQ ID NO:4); GST-hEphA5 (1-48 aa) (SEQ ID NO:5); GST-hEphA5 (1-72 aa) (SEQ ID NO:6); GST-hEphA5 (1-95 aa) (SEQ ID NO:7); GST-hEphA5 (1-120 aa) (SEQ ID NO:8); GST-hEphA5 (1-144 aa) (SEQ ID NO:9); and GST-hEphA5 (1-164 aa) (SEQ ID NO:10).
Epitope mapping was performed with protein fragments of human EphA5. […] This region is provided as SEQ ID NO:3. Further epitope mapping was performed by ELISA using fusion proteins including EphA5 sequences within the 304-467 region (FIG. 10).
For orientation: ELISA stands for enzyme-linked immunosorbent assay.

B1: 11C12 monoclonal anti-EphA5 antibody (antibody, mouse IgG1, V domains shown)
VH: EVTLKESGGGLVQPGGSRKLSCAASGFTFSTFGIHWVRQAPEKGLEWVAYISGASTTIYYADTVKGRFTISRDNPKNTLFLQMTSLRSEDTAMYYCARYGTSFPYGLDYWGQGTSVTVSS
VL: DIVMTQSPGSLAVSLGQRATISCKASQSVDYDGDSYMNWYQQKPGQPPKLLIYGASNLESGIPARFSGSGSGTDFTLNIHPVEEEDAASYYCQQSNEDPFTFGSGTKLEIK
notes: Murine IgG1 monoclonal antibody from a hybridoma; also called monoclonal antibody 11C12; 11C12 antibody
As to B1, the binding result was “binds”.
